Assay results taken from the supplement of paper PMC9233669.
This sample holds only a part of the variants without activity.

How the values were obtained:
biotinyl-Phe-oxazolone = assay: self-aminoacylation, catalytic enhancement (BFO) (fold over background); higher = more active; k-Seq, kA / k0A0; sequences stand for … in GGGAAUGGAUCCACAUCUACGAAUUC…UUCACUGCAGACUUGACGAAGCUG
Method in brief: (§1)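 The uncatalyzed rate is the low-activity peak of a bimodal Gaussian fit, and catalytic enhancement is median kA divided by it. The kA values came from pseudo-first-order fits, with 1000 bootstraps, of per-sequence fraction reacted measured by streptavidin capture, triplicate qPCR and Illumina sequencing. Mutagenized RNA pools with a 21-nt variable region (0.43 μM) were reacted with each biotinyl-aminoacyl-oxazolone at 2–1250 μM in 50 μL HEPES/NaCl/KCl/MgCl2/CaCl2 buffer with 5% acetonitrile, pH 6.9–7.0, for 90 minutes at room temperature.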

biotinyl-Ile-oxazolone = assay: self-aminoacylation, catalytic enhancement (BIO) (fold over background); higher = more active; k-Seq, kA / k0A0; sequences stand for … in GGGAAUGGAUCCACAUCUACGAAUUC…UUCACUGCAGACUUGACGAAGCUG
Method in brief: as §1

biotinyl-Met-oxazolone = assay: self-aminoacylation, catalytic enhancement (BMO) (fold over background); higher = more active; k-Seq, kA / k0A0; sequences stand for … in GGGAAUGGAUCCACAUCUACGAAUUC…UUCACUGCAGACUUGACGAAGCUG
Method in brief: as §1

biotinyl-Val-oxazolone = assay: self-aminoacylation, catalytic enhancement (BVO) (fold over background); higher = more active; k-Seq, kA / k0A0; sequences stand for … in GGGAAUGGAUCCACAUCUACGAAUUC…UUCACUGCAGACUUGACGAAGCUG
Method in brief: as §1

biotinyl-Leu-oxazolone = assay: self-aminoacylation, catalytic enhancement (BLO) (fold over background); higher = more active; k-Seq, kA / k0A0; sequences stand for … in GGGAAUGGAUCCACAUCUACGAAUUC…UUCACUGCAGACUUGACGAAGCUG
Method in brief: as §1

biotinyl-Trp-oxazolone = assay: self-aminoacylation, catalytic enhancement (BWO) (fold over background); higher = more active; k-Seq, kA / k0A0; sequences stand for … in GGGAAUGGAUCCACAUCUACGAAUUC…UUCACUGCAGACUUGACGAAGCUG
Method in brief: as §1

Row | Sequence | self-aminoacylation (biotinyl-Phe-oxazolone) | self-aminoacylation (biotinyl-Ile-oxazolone) | self-aminoacylation (biotinyl-Met-oxazolone) | self-aminoacylation (biotinyl-Val-oxazolone) | self-aminoacylation (biotinyl-Leu-oxazolone) | self-aminoacylation (biotinyl-Trp-oxazolone)
1 | CUAUUUCAAACAUUCGGUCUG [Fam1A.1 aminoacylation ribozyme variant] | 0.835 | 1.18 | 1.3 | 1.3 | 1.16 | 1.16
2 | CUCCACCUAGGUCAUCGGGUG [Fam2.2 aminoacylation ribozyme variant] | 36.3 | 3.95 | 5.98 | 5.19 | 5.74 | 7.04
3 | CUCCUUCAAACAAUCGCUCUG [Fam1A.1 aminoacylation ribozyme variant] | 2.77 | 0.73 | 0.531 | 0.666 | 0.78 | 2.01
4 | CUCCUUCAAACAAUGGGUCUG [Fam1A.1 aminoacylation ribozyme variant] | 0.816 | 0.855 | 0.901 | 0.982 | 1.05 | 0.877
5 | CUCCUUCAAACCAUCGGUCUG [Fam1A.1 aminoacylation ribozyme variant] | 1.69 | 0.815 | 0.805 | 0.977 | 0.781 | 0.905
6 | CUCCUUCAACCAAUCGGUCUG [Fam1A.1 aminoacylation ribozyme variant] | 29.5 | 1.11 | 1.1 | 1.16 | 1.33 | 19.8
7 | CUCCUUCAAGCAAUCGGUCUG [Fam1A.1 aminoacylation ribozyme variant] | 14.1 | 1.09 | 1.2 | 1.09 | 1.58 | 10.2
8 | CUGACCCUGGUCAUCGAGUGA [Fam2.1 aminoacylation ribozyme variant] | 7.35 | 3.64 | 7.22 | 4.5 | 7.94 | 8.61
9 | CUGCUGCAAACAAUCGGUCUG [Fam1A.1 aminoacylation ribozyme variant] | 1.81 | 1.05 | 0.995 | 1.07 | 1.31 | 1.53
10 | CUGCUUCAAACAAUCAGUCUG [Fam1A.1 aminoacylation ribozyme variant] | 40.5 | 0.738 | 0.723 | 0.77 | 1.21 | 12.5
11 | CUGCUUCAAACAAUCGGCCUG [Fam1A.1 aminoacylation ribozyme variant] | 449 | 3.07 | 3.69 | 3.35 | 6.94 | 162
12 | CUGCUUCAAACAAUCGGUCUG [Fam1A.1 aminoacylation ribozyme variant] | 125 | 1.29 | 1.72 | 1.35 | 2.83 | 53.5
13 | CUGCUUCAAACAUUCGGUCUG [Fam1A.1 aminoacylation ribozyme variant] | 1.11 | 1.29 | 1.12 | 1.62 | 1.25 | 0.813
14 | CUGCUUCAACCAAUCGGUCUG [Fam1A.1 aminoacylation ribozyme variant] | 79.4 | 1.31 | 1.41 | 1.38 | 2.45 | 43.2
15 | CUUACACUGGUCAUCGAGUGA [Fam2.1 aminoacylation ribozyme variant] | 10.2 | 2.65 | 4.19 | 2.69 | 4.41 | 4.94
16 | CUUACCCGGGUCAUCGAGUGA [Fam2.1 aminoacylation ribozyme variant] | 36.5 | 3.03 | 5.92 | 3.48 | 7.48 | 7.34
17 | CUUACCCUCGUCAUCGAGUGA [Fam2.1 aminoacylation ribozyme variant] | 3.66 | 1.82 | 2.42 | 1.92 | 2.47 | 3.21
18 | CUUACCCUGGUCAACGAGUGA [Fam2.1 aminoacylation ribozyme variant] | 15.8 | 2.56 | 5.06 | 3.29 | 5.08 | 6.73
19 | CUUACCCUGGUCACCGAGUGA [Fam2.1 aminoacylation ribozyme variant] | 57.1 | 3.87 | 9.14 | 4.49 | 8.9 | 8.62
20 | CUUACCCUGGUCAUCCAGUGA [Fam2.1 aminoacylation ribozyme variant] | 16.9 | 2.37 | 4.04 | 2.77 | 4.63 | 5.03
21 | CUUACCCUGGUCAUCGCGUGA [Fam2.1 aminoacylation ribozyme variant] | 148 | 7.79 | 18.7 | 10.9 | 18.9 | 18.5
22 | CUUACCCUGGUCAUGGAGUGA [Fam2.1 aminoacylation ribozyme variant] | 10.1 | 2.16 | 3.59 | 2.21 | 3.74 | 4.01
23 | CUUACGCUGGUCAUCGAGUGA [Fam2.1 aminoacylation ribozyme variant] | 7.86 | 2.13 | 3.06 | 2.61 | 3.03 | 3.35
24 | CUUACUCUGGUCAUCGAGUGA [Fam2.1 aminoacylation ribozyme variant] | 14.2 | 2.54 | 4.98 | 3.07 | 5.28 | 5.52
25 | CUUCACCUACGUCAUCGGGUG [Fam2.2 aminoacylation ribozyme variant] | 37.8 | 3.06 | 5.1 | 3.69 | 5.63 | 4.58
26 | CUUCACCUAGGACAUCGGGUG [Fam2.2 aminoacylation ribozyme variant] | 14.1 | 2.34 | 3.03 | 2.68 | 3.53 | 3.31

Row | Sequence | self-aminoacylation (biotinyl-Phe-oxazolone) | self-aminoacylation (biotinyl-Ile-oxazolone) | self-aminoacylation (biotinyl-Met-oxazolone) | self-aminoacylation (biotinyl-Val-oxazolone) | self-aminoacylation (biotinyl-Leu-oxazolone) | self-aminoacylation (biotinyl-Trp-oxazolone)
27 | CUUCACCUAGGCCAUCGGGUG [Fam2.2 aminoacylation ribozyme variant] | 11.2 | 2.55 | 3.12 | 3.8 | 4.08 | 4.2
28 | CUUCACCUAGGUCAUCAGGUG [Fam2.2 aminoacylation ribozyme variant] | 1.47 | 1.46 | 1.62 | 1.7 | 1.84 | 1.31
29 | CUUCACCUAGGUCAUCGCGUG [Fam2.2 aminoacylation ribozyme variant] | 96.5 | 7.29 | 12.4 | 8.89 | 13.6 | 10.9
30 | CUUCACCUAGGUCAUCGGGUG [Fam2.2 aminoacylation ribozyme variant] | 34.6 | 4.63 | 7.51 | 5.18 | 9 | 6.65
31 | CUUCACCUAGGUCAUCGGGUU [Fam2.2 aminoacylation ribozyme variant] | 18.1 | 4.09 | 5.02 | 3.77 | 7.09 | 5.02
32 | CUUCACCUAGGUCAUUGGGUG [Fam2.2 aminoacylation ribozyme variant] | 12.3 | 1.98 | 2.36 | 2.22 | 2.25 | 2.35
33 | CUUCACCUAUGUCAUCGGGUG [Fam2.2 aminoacylation ribozyme variant] | 17 | 2.35 | 3.64 | 2.83 | 4.68 | 4.46
34 | CUUCACGUAGGUCAUCGGGUG [Fam2.2 aminoacylation ribozyme variant] | 36.6 | 3.59 | 4.38 | 4.16 | 4.22 | 4.63
35 | CUUCACUUCAAGCAAUCGGUC [Fam1B.1 aminoacylation ribozyme variant] | 46.4 | 1.05 | 1.16 | 1.15 | 1.55 | 20.9
36 | CUUCAGCUAGGUCAUCGGGUG [Fam2.2 aminoacylation ribozyme variant] | 16 | 2.65 | 3.42 | 3.6 | 3.57 | 3.83
37 | CUUCGCCUAGGUCAUCGGGUG [Fam2.2 aminoacylation ribozyme variant] | 37.4 | 3.75 | 3.41 | 4.54 | 4.47 | 5.8
38 | CUUCUCCUAGGUCAUCGGGUG [Fam2.2 aminoacylation ribozyme variant] | 35.6 | 4.42 | 6.43 | 4.48 | 8.84 | 6.52
39 | CUUCUUAAAACAAUCGGUCUG [Fam1A.1 aminoacylation ribozyme variant] | 0.699 | 0.859 | 0.895 | 0.748 | 0.739 | 0.564
40 | CUUCUUCAAAAAAUCGGUCUG [Fam1A.1 aminoacylation ribozyme variant] | 6.58 | 1 | 0.902 | 0.851 | 1.02 | 5.39
41 | CUUCUUCAAACAAUCGGUCUC [Fam1A.1 aminoacylation ribozyme variant] | 28.6 | 0.814 | 0.773 | 0.874 | 1.08 | 13.6
42 | CUUCUUCAAACAAUCGUUCUG [Fam1A.1 aminoacylation ribozyme variant] | 1.06 | 0.68 | 0.62 | 0.6 | 0.65 | 0.804
43 | CUUCUUCAAUCAAUCGGUCUG [Fam1A.1 aminoacylation ribozyme variant] | 18.9 | 0.975 | 0.986 | 0.956 | 1.21 | 11.3
44 | CUUGACCUAGGUCAUCGGGUG [Fam2.2 aminoacylation ribozyme variant] | 23.2 | 3.43 | 3.39 | 3.87 | 4.42 | 5.2
45 | CUUGCCCUGGUCAUCGAGUGA [Fam2.1 aminoacylation ribozyme variant] | 64.3 | 6.56 | 15.4 | 7.34 | 14.7 | 16.5
46 | CUUGUUCAAACAAUCGGUCUG [Fam1A.1 aminoacylation ribozyme variant] | 5.84 | 1.07 | 0.957 | 0.967 | 1.18 | 3.07
47 | CUUUACCUAGGUCAUCGGGUG [Fam2.2 aminoacylation ribozyme variant] | 25.3 | 3.85 | 5.23 | 3.71 | 7.1 | 5.46
48 | CUUUUUCAAACAAUCGGUCUG [Fam1A.1 aminoacylation ribozyme variant] | 6.81 | 0.86 | 0.67 | 0.815 | 0.89 | 3.86
49 | GAGUCUGCUAAUAGUCGCAAG [Fam3.1 aminoacylation ribozyme variant] | 46.9 | 1.99 | 2.34 | 1.63 | 2.07 | 14
50 | GAGUUUACUAAUAGUCGCAAG [Fam3.1 aminoacylation ribozyme variant] | 3.13 | 1.84 | 1.19 | 1.29 | 1.59 | 2.33
51 | GAGUUUGCUAAUAGUCGCAAG [Fam3.1 aminoacylation ribozyme variant] | 22.7 | 1.72 | 1.78 | 1.5 | 1.39 | 7.44
